Data taken from patent publication US7452992B2, “Heterocyclic compounds as CCR5 antagonists” (SmithKline Beecham Corporation, priority 2002, dated 2008).

Target: T1, human CCR5 chemokine receptor (Homo sapiens, UniProt P51681)
T1 construct: host or cells: Chinese Hamster Ovary (CHO) cells; membranes prepared from the cell pellet
Assay: CC-Chemokine Receptor-5 Binding by Scintillation Proximity Assay (CCR5 SPA), displacement of 125I-MIP1α
Conditions: standard compound, 14-point concentration-response curve in triplicate, starting concentration 1 μM
Description: CC-Chemokine Receptor-5 Binding by Scintillation Proximity Assay (CCR5 SPA)
Scintillation Proximity Assay for the Human CC-Chemokine Receptor, CCR-5
This protocol describes a high-throughput screen using SPA binding to identify compounds that inhibit binding of ^125I-MIP1α to the human CCR5 chemokine receptor.
Human CCR5 receptors were expressed in Chinese Hamster Ovary (CHO) cells, registration # 12025. Cells were grown in suspension and a 50 to 80 ml CCR5 cell pellet was prepared. […]
The saturation curve binding experiment is performed by adding varying amounts of [^125I]MIP1α (0-8.5 nM to membranes and beads in concentrations chosen from the optimal protein/bead ratio. The data is analyzed using a non-linear curve-fitting program. The Kd and Bmax are derived from the curve. […]

T1 sequence (P51681 whole entry): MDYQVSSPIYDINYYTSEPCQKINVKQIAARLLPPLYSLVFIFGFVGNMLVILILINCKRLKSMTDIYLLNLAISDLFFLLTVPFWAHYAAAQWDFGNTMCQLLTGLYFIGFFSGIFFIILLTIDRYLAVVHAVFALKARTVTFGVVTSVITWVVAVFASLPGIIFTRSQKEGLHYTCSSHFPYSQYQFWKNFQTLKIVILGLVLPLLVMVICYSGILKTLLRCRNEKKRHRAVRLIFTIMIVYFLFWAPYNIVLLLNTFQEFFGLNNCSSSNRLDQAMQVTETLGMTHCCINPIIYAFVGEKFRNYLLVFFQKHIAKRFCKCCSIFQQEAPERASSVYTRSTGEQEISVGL

## MIP1α: natural chemokine ligand of CCR5, used as standard compound in the SPA binding assay
  average historical pKi: 7.6
